# According to patent US20240218011A1 (FIREFLY BIO, published 2024):
# Molecular target: human LPAM1 (human, UniProt P26010 20-798)
# Experiment: cell-based or functional assay
# Chain of human LPAM1 (P26010 20-798): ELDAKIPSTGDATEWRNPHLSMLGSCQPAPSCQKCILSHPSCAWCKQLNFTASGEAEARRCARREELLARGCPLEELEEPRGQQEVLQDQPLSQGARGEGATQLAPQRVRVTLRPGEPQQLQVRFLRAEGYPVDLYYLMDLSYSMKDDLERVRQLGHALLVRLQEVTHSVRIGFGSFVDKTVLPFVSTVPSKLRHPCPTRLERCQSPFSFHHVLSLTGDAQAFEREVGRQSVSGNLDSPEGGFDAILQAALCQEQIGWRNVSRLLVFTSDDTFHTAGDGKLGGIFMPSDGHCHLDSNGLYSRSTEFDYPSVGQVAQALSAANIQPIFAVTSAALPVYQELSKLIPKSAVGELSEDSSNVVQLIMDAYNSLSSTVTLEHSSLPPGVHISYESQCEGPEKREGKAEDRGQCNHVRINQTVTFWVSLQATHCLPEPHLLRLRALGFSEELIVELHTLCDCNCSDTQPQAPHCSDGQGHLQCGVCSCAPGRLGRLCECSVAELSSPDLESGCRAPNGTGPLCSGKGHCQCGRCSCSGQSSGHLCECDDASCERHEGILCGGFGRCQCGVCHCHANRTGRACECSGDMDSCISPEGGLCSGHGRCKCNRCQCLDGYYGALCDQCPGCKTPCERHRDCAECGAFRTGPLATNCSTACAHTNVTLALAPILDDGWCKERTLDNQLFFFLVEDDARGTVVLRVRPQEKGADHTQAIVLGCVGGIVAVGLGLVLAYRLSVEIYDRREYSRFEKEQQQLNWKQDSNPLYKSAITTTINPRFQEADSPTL
binder,measurement,value
"Anti-LPAM-1-Linker 1-Bud (vedolizumab conjugated to GR agonist budesonide with Linker 1) (antibody, human IgG1, kappa, V domains shown, budesonide attached through Linker 1; residues and chain not stated) VH: QVQLVQSGAEVKKPGASVKVSCKGSGYTFTSYWMHWVRQAPGQRLEWIGEIDPSESNTNYNQKFKGRVTLTVDISASTAYMELSSLRSEDTAVYYCARGGYDGWDYAIDYWGQGTLVTVSS VL: DVVMTQSPLSLPVTPGEPASISCRSSQSLAKSYGNTYLSWYLQKPGQSPQLLIYGISNRFSGVPDRFSGSGSGTDFTLKISRVEAEDVGVYYCLQGTHQPYTFGQGTKVEIKR",Fold induction Anti-LPAM1 conjugate at 0.0064 nM; luciferase reporter,1 fold
same,Fold induction Anti-LPAM1 conjugate at 0.032 nM; luciferase reporter,1 fold
same,Fold induction Anti-LPAM1 conjugate at 0.16 nM; luciferase reporter,20 fold
same,Fold induction Anti-LPAM1 conjugate at 0.8 nM; luciferase reporter,121 fold
same,Fold induction Anti-LPAM1 conjugate at 4 nM; luciferase reporter,147 fold
same,Fold induction Anti-LPAM1 conjugate at 20 nM; luciferase reporter,177 fold
same,Fold induction Anti-LPAM1 conjugate at 100 nM; luciferase reporter,240 fold
same,Fold induction Anti-LPAM1 conjugate at 500 nM; luciferase reporter,361 fold
